Assay results reported in US20070184523A1 (Genentech, published 2007).

How the values were obtained:
[1] = molecular target: T1, CH3 T366S:L368A:Y407V cavity mutant (human, UniProt P01857-1 224-330 = IgG part, T366S; L368A; Y407V); experiment: calorimetry of a 1:1 mixture of purified CH3 domains
T1 construct: domain: CH3; Isolated CH3 domain secreted from E. coli; Positions follow Eu numbering; also called phage-selected cavity mutant

CH3 Y407A cavity mutant = molecular target: T2, CH3 Y407A cavity mutant (human, UniProt P01857-1 224-330 = IgG part, Y407A); experiment: calorimetry of a mixture of purified CH3 domains
T2 construct: domain: CH3; Isolated CH3 domain secreted from E. coli; Positions follow Eu numbering; also called designed cavity mutant

- binding result [1]: binds
- binding result (CH3 Y407A cavity mutant): binds
B1: CH3 T366W protuberance mutant (other, human, UniProt P01857-1 224-330, looked up, name in EU numbering)
chain: GQPREPQVYTLPPSRDELTKNQVSLWCLVKGFYPSDIAVEWESNGQPENNYKTTPPVLDSDGSFFLYSKLTVDKSRWQQGNVFSCSVMHEALHNHYTQKSLSLSPGK
notes: domain: CH3; Isolated CH3 domain secreted from E. coli (plasmid pAK19); Positions follow Eu numbering, not the UniProt entry
